# Reference: IntAct's records for PubMed 26886794
# What was measured:
# ASH2L, Q9UBL3-3 [1] = target: ASH2L, Q9UBL3-3
# ASH2L, Q9UBL3-3 [2] = target: ASH2L, Q9UBL3-3; remark: listed apart in the source
# ASH2L, Q9UBL3-3, sequence (Q9UBL3 95-628): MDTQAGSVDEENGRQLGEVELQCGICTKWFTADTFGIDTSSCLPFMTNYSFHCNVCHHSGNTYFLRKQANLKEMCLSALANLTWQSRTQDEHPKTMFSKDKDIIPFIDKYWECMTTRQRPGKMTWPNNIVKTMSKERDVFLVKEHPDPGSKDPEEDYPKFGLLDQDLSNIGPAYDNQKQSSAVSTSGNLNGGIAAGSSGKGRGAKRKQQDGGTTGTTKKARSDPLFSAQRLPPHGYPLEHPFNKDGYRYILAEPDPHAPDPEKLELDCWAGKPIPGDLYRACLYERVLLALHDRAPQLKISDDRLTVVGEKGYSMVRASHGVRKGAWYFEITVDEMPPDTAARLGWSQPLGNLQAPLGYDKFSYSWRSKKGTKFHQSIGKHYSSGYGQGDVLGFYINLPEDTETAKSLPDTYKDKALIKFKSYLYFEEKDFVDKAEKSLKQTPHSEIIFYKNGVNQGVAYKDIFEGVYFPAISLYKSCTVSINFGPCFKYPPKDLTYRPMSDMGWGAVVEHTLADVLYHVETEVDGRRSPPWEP
Substance,"effect of a mutation on the interaction (ASH2L, Q9UBL3-3 [1])","effect of a mutation on the interaction (ASH2L, Q9UBL3-3 [2])"
"Histone-lysine N-methyltransferase 2B (Homo sapiens), Q9UMN6 R2610A",disrupting interaction strength,
"Histone-lysine N-methyltransferase 2C (Homo sapiens), Q8NEZ4 R4806A",,disrupting interaction strength
